According to US20230357348A1 (AstraZeneca / MedImmune, published 2023):
Starred links: 1 amine or outer side, 2 acyl side, 3 side chain; linkers in the order of their positions; H or OH if unused. Non-standard residues stand in square brackets, D forms with d. Groups on a side chain read outwards from the residue. No end group written: not given here. *: point of attachment. C20 diacid = O=C(O)CCCCCCCCCCCCCCCCCCC(=O)*; C18 diacid = O=C(O)CCCCCCCCCCCCCCCCC(=O)*; γGlu = O=C(O)[C@H](CCC(=O)[*:2])N[*:1]; αMeF = C[C@](N)(Cc1ccccc1)C(=O)O; AEEA = NCCOCCOCC(=O)O; Aib = CC(C)(N)C(=O)O

Experiments:
[1] = biological target: human GLP-1 receptor (hGLP-1R) (human, UniProt P43220 24-463); test: cell-based or functional assay
[2] = biological target: human glucagon receptor (hGCGR) (human, UniProt P47871 26-477); test: cell-based or functional assay
Chain of human glucagon receptor (hGCGR) (P47871 26-477): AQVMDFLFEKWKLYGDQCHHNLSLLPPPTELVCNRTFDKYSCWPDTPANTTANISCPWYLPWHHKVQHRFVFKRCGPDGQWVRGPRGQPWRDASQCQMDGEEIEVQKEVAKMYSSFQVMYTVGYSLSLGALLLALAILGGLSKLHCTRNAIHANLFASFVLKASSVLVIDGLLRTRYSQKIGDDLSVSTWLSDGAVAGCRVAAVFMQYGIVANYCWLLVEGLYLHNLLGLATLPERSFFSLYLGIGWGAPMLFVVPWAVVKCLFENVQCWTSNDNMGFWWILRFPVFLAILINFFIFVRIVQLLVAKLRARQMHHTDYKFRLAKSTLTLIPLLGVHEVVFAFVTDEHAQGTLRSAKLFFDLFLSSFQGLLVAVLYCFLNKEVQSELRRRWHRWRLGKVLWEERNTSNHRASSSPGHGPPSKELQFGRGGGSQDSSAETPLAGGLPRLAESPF

Binder | hGLP-1R EC50 (pM) [1] [pM] | hGluc-R EC50 (pM) [2] [pM]
H[Aib]QGTFTSDVSK[αMeF]LDTK([AEEA-AEEA-γGlu-γGlu-C20 diacid])RAQDFVQWLLE[Aib]G-NH2 (N-terminus assumed; SMILES CC(C)C[C@H](NC(=O)[C@H](Cc1c[nH]c2ccccc12)NC(=O)[C@H](CCC(N)=O)NC(=O)[C@@H](NC(=O)[C@H](Cc1ccccc1)NC(=O)[C@H](CC(=O)O)NC(=O)[C@H](CCC(N)=O)NC(=O)[C@H](C)NC(=O)[C@H](CCCNC(=N)N)NC(=O)[C@H](CCCCNC(=O)COCCOCCNC(=O)COCCOCCNC(=O)CC[C@H](NC(=O)CC[C@H](NC(=O)CCCCCCCCCCCCCCCCCCC(=O)O)C(=O)O)C(=O)O)NC(=O)[C@@H](NC(=O)[C@H](CC(=O)O)NC(=O)[C@H](CC(C)C)NC(=O)[C@](C)(Cc1ccccc1)NC(=O)[C@H](CCCCN)NC(=O)[C@H](CO)NC(=O)[C@@H](NC(=O)[C@H](CC(=O)O)NC(=O)[C@H](CO)NC(=O)[C@@H](NC(=O)[C@H](Cc1ccccc1)NC(=O)[C@@H](NC(=O)CNC(=O)[C@H](CCC(N)=O)NC(=O)C(C)(C)NC(=O)[C@@H](N)Cc1c[nH]cn1)[C@@H](C)O)[C@@H](C)O)C(C)C)[C@@H](C)O)C(C)C)C(=O)N[C@@H](CC(C)C)C(=O)N[C@@H](CCC(=O)O)C(=O)NC(C)(C)C(=O)NCC(N)=O) [Peptide 469] | 255 | 538
H[Aib]QGTFTSDVSK[αMeF]LDTK([AEEA-AEEA-γGlu-C18 diacid])RAQDFVQWLLE[Aib]G-NH2 (N-terminus assumed; SMILES CC(C)C[C@H](NC(=O)[C@H](Cc1c[nH]c2ccccc12)NC(=O)[C@H](CCC(N)=O)NC(=O)[C@@H](NC(=O)[C@H](Cc1ccccc1)NC(=O)[C@H](CC(=O)O)NC(=O)[C@H](CCC(N)=O)NC(=O)[C@H](C)NC(=O)[C@H](CCCNC(=N)N)NC(=O)[C@H](CCCCNC(=O)COCCOCCNC(=O)COCCOCCNC(=O)CC[C@H](NC(=O)CCCCCCCCCCCCCCCCC(=O)O)C(=O)O)NC(=O)[C@@H](NC(=O)[C@H](CC(=O)O)NC(=O)[C@H](CC(C)C)NC(=O)[C@](C)(Cc1ccccc1)NC(=O)[C@H](CCCCN)NC(=O)[C@H](CO)NC(=O)[C@@H](NC(=O)[C@H](CC(=O)O)NC(=O)[C@H](CO)NC(=O)[C@@H](NC(=O)[C@H](Cc1ccccc1)NC(=O)[C@@H](NC(=O)CNC(=O)[C@H](CCC(N)=O)NC(=O)C(C)(C)NC(=O)[C@@H](N)Cc1c[nH]cn1)[C@@H](C)O)[C@@H](C)O)C(C)C)[C@@H](C)O)C(C)C)C(=O)N[C@@H](CC(C)C)C(=O)N[C@@H](CCC(=O)O)C(=O)NC(C)(C)C(=O)NCC(N)=O) [Peptide 466] | 35.6 | 131
H[Aib]QGTFTSDVSK[αMeF]LDTK([AEEA-AEEA-γGlu-γGlu-C18 diacid])RAQDFVQWLLE[Aib]G-NH2 [Peptide 468] | 67.5 | 292
H[Aib]QGTFTSDVSK[αMeF]LDTK([AEEA-AEEA-γGlu-C18 diacid])RARDFVQWLLA[Aib]G-NH2 (N-terminus assumed; SMILES CC(C)C[C@H](NC(=O)[C@H](CC(C)C)NC(=O)[C@H](Cc1c[nH]c2ccccc12)NC(=O)[C@H](CCC(N)=O)NC(=O)[C@@H](NC(=O)[C@H](Cc1ccccc1)NC(=O)[C@H](CC(=O)O)NC(=O)[C@H](CCCNC(=N)N)NC(=O)[C@H](C)NC(=O)[C@H](CCCNC(=N)N)NC(=O)[C@H](CCCCNC(=O)COCCOCCNC(=O)COCCOCCNC(=O)CC[C@H](NC(=O)CCCCCCCCCCCCCCCCC(=O)O)C(=O)O)NC(=O)[C@@H](NC(=O)[C@H](CC(=O)O)NC(=O)[C@H](CC(C)C)NC(=O)[C@](C)(Cc1ccccc1)NC(=O)[C@H](CCCCN)NC(=O)[C@H](CO)NC(=O)[C@@H](NC(=O)[C@H](CC(=O)O)NC(=O)[C@H](CO)NC(=O)[C@@H](NC(=O)[C@H](Cc1ccccc1)NC(=O)[C@@H](NC(=O)CNC(=O)[C@H](CCC(N)=O)NC(=O)C(C)(C)NC(=O)[C@@H](N)Cc1c[nH]cn1)[C@@H](C)O)[C@@H](C)O)C(C)C)[C@@H](C)O)C(C)C)C(=O)N[C@@H](C)C(=O)NC(C)(C)C(=O)NCC(N)=O) [Peptide 474] | 8.04 | 56.9
H[Aib]QGTFTSDVSK[αMeF]LDLK([AEEA-AEEA-γGlu-γGlu-C18 diacid])RAQDFVQWLL[Aib]T-OH (N-terminus assumed; SMILES CC(C)C[C@H](NC(=O)[C@H](CC(=O)O)NC(=O)[C@H](CC(C)C)NC(=O)[C@](C)(Cc1ccccc1)NC(=O)[C@H](CCCCN)NC(=O)[C@H](CO)NC(=O)[C@@H](NC(=O)[C@H](CC(=O)O)NC(=O)[C@H](CO)NC(=O)[C@@H](NC(=O)[C@H](Cc1ccccc1)NC(=O)[C@@H](NC(=O)CNC(=O)[C@H](CCC(N)=O)NC(=O)C(C)(C)NC(=O)[C@@H](N)Cc1c[nH]cn1)[C@@H](C)O)[C@@H](C)O)C(C)C)C(=O)N[C@@H](CCCCNC(=O)COCCOCCNC(=O)COCCOCCNC(=O)CC[C@H](NC(=O)CC[C@H](NC(=O)CCCCCCCCCCCCCCCCC(=O)O)C(=O)O)C(=O)O)C(=O)N[C@@H](CCCNC(=N)N)C(=O)N[C@@H](C)C(=O)N[C@@H](CCC(N)=O)C(=O)N[C@@H](CC(=O)O)C(=O)N[C@@H](Cc1ccccc1)C(=O)N[C@H](C(=O)N[C@@H](CCC(N)=O)C(=O)N[C@@H](Cc1c[nH]c2ccccc12)C(=O)N[C@@H](CC(C)C)C(=O)N[C@@H](CC(C)C)C(=O)NC(C)(C)C(=O)N[C@H](C(=O)O)[C@@H](C)O)C(C)C) [Peptide 465] | 485 | 436
H[Aib]QGTFTSDVSK[αMeF]LDRK([AEEA-AEEA-γGlu-C18 diacid])RARDFVQWLL[Aib]E-NH2 (N-terminus assumed; SMILES CC(C)C[C@H](NC(=O)[C@H](Cc1c[nH]c2ccccc12)NC(=O)[C@H](CCC(N)=O)NC(=O)[C@@H](NC(=O)[C@H](Cc1ccccc1)NC(=O)[C@H](CC(=O)O)NC(=O)[C@H](CCCNC(=N)N)NC(=O)[C@H](C)NC(=O)[C@H](CCCNC(=N)N)NC(=O)[C@H](CCCCNC(=O)COCCOCCNC(=O)COCCOCCNC(=O)CC[C@H](NC(=O)CCCCCCCCCCCCCCCCC(=O)O)C(=O)O)NC(=O)[C@H](CCCNC(=N)N)NC(=O)[C@H](CC(=O)O)NC(=O)[C@H](CC(C)C)NC(=O)[C@](C)(Cc1ccccc1)NC(=O)[C@H](CCCCN)NC(=O)[C@H](CO)NC(=O)[C@@H](NC(=O)[C@H](CC(=O)O)NC(=O)[C@H](CO)NC(=O)[C@@H](NC(=O)[C@H](Cc1ccccc1)NC(=O)[C@@H](NC(=O)CNC(=O)[C@H](CCC(N)=O)NC(=O)C(C)(C)NC(=O)[C@@H](N)Cc1c[nH]cn1)[C@@H](C)O)[C@@H](C)O)C(C)C)C(C)C)C(=O)N[C@@H](CC(C)C)C(=O)NC(C)(C)C(=O)N[C@@H](CCC(=O)O)C(N)=O) [Peptide 473] | 11.5 | 14.1
H[Aib]QGTFTSDVSK[αMeF]LDRK([AEEA-AEEA-γGlu-C20 diacid])RARDFVQWLL[Aib]E-NH2 [Peptide 471] | 102 | 63.6
H[Aib]QGTFTSDVSK[αMeF]LDKK([AEEA-AEEA-γGlu-C18 diacid])RARDFVQWLL[Aib]E-NH2 (N-terminus assumed; SMILES CC(C)C[C@H](NC(=O)[C@H](Cc1c[nH]c2ccccc12)NC(=O)[C@H](CCC(N)=O)NC(=O)[C@@H](NC(=O)[C@H](Cc1ccccc1)NC(=O)[C@H](CC(=O)O)NC(=O)[C@H](CCCNC(=N)N)NC(=O)[C@H](C)NC(=O)[C@H](CCCNC(=N)N)NC(=O)[C@H](CCCCNC(=O)COCCOCCNC(=O)COCCOCCNC(=O)CC[C@H](NC(=O)CCCCCCCCCCCCCCCCC(=O)O)C(=O)O)NC(=O)[C@H](CCCCN)NC(=O)[C@H](CC(=O)O)NC(=O)[C@H](CC(C)C)NC(=O)[C@](C)(Cc1ccccc1)NC(=O)[C@H](CCCCN)NC(=O)[C@H](CO)NC(=O)[C@@H](NC(=O)[C@H](CC(=O)O)NC(=O)[C@H](CO)NC(=O)[C@@H](NC(=O)[C@H](Cc1ccccc1)NC(=O)[C@@H](NC(=O)CNC(=O)[C@H](CCC(N)=O)NC(=O)C(C)(C)NC(=O)[C@@H](N)Cc1c[nH]cn1)[C@@H](C)O)[C@@H](C)O)C(C)C)C(C)C)C(=O)N[C@@H](CC(C)C)C(=O)NC(C)(C)C(=O)N[C@@H](CCC(=O)O)C(N)=O) [Peptide 472] | 7.63 | 11.1
H[Aib]QGTFTSDVSK[αMeF]LDKK([AEEA-AEEA-γGlu-C20 diacid])RARDFVQWLL[Aib]E-NH2 (N-terminus assumed; SMILES CC(C)C[C@H](NC(=O)[C@H](Cc1c[nH]c2ccccc12)NC(=O)[C@H](CCC(N)=O)NC(=O)[C@@H](NC(=O)[C@H](Cc1ccccc1)NC(=O)[C@H](CC(=O)O)NC(=O)[C@H](CCCNC(=N)N)NC(=O)[C@H](C)NC(=O)[C@H](CCCNC(=N)N)NC(=O)[C@H](CCCCNC(=O)COCCOCCNC(=O)COCCOCCNC(=O)CC[C@H](NC(=O)CCCCCCCCCCCCCCCCCCC(=O)O)C(=O)O)NC(=O)[C@H](CCCCN)NC(=O)[C@H](CC(=O)O)NC(=O)[C@H](CC(C)C)NC(=O)[C@](C)(Cc1ccccc1)NC(=O)[C@H](CCCCN)NC(=O)[C@H](CO)NC(=O)[C@@H](NC(=O)[C@H](CC(=O)O)NC(=O)[C@H](CO)NC(=O)[C@@H](NC(=O)[C@H](Cc1ccccc1)NC(=O)[C@@H](NC(=O)CNC(=O)[C@H](CCC(N)=O)NC(=O)C(C)(C)NC(=O)[C@@H](N)Cc1c[nH]cn1)[C@@H](C)O)[C@@H](C)O)C(C)C)C(C)C)C(=O)N[C@@H](CC(C)C)C(=O)NC(C)(C)C(=O)N[C@@H](CCC(=O)O)C(N)=O) [Peptide 470] | 55.9 | 30.3
